# Target: serum proteins
# Assay: 90% serum, 30 kDa ultrafiltration, HPLC
row,Binder,Protein binding (%)
1,GFCAKVCVYRNGVRSCYRRCN [SEQ ID NO: 120],69
2,GFCFYVCVKRNGVRVCHRRCN [SEQ ID NO: 137],86
3,GFCWKVCVYRNGVRVCYRRCN [SEQ ID NO: 10],64
4,GFCWNVCVYRNGVRLCHRRCN [SEQ ID NO: 249],83
5,GFCWNVCVRRNGVRVCHRRCN [SEQ ID NO: 308],94
6,GFCWNVCVYRNGVRRCHRRCN [SEQ ID NO: 252],76
7,GFCWYSCVYRNGVRVCYRRCN [SEQ ID NO: 19],89
8,GFCWRVCVYRNGARKCYRRCN [SEQ ID NO: 313],98
9,GFCWNVCVYRAGVRVCHRRCN [SEQ ID NO: 230],71
10,GFCWNVCVYRNGVRGCHRRCN [SEQ ID NO: 246],79
11,GFCARVCVKRNGVRVCYRRCN [SEQ ID NO: 125],90
12,GFCWNLCVYRNGVRVCHRRCN [SEQ ID NO: 263],80
13,GFCYRVCVYRNGVRVCHRRCN [SEQ ID NO: 210],89
14,GFCTYVCVKRNGVRKCYRRCN [SEQ ID NO: 195],95
15,GFCWNVCVARNGVRVCHRRCN [SEQ ID NO: 299],74
16,GFCWNVCVYRRGVRVCHRRCN [SEQ ID NO: 234],86

row,Binder,Protein binding (%)
1,GFCWNVCVYRNGHRVCHRRCN [SEQ ID NO: 237],40
2,GFCWNVCVYRNGVRNCHRRCN [SEQ ID NO: 251],71
3,GFCARVCVYRNGVRSCYRRCN [SEQ ID NO: 122],81
4,GFCWHVCVYRNGARSCYRRCN [SEQ ID NO: 213],95
5,GFCWNVCVYRNGVRVCHRRCH [SEQ ID NO: 282],82
6,GFCWNVCVYRNGVRICHRRCN [SEQ ID NO: 248],58
7,GFCGRVCVRRNGVRVCYRRCN [SEQ ID NO: 172],88
8,GFCWNVCVYRNGVRWCHRRCN [SEQ ID NO: 253],94
9,GFCWNVCVYRNKVRVCHRRCN [SEQ ID NO: 227],80
10,GFCWYWCVYRNGVRVCYRRCN [SEQ ID NO: 20],99
11,GFCWNVCVYRNGVRYCHRRCN [SEQ ID NO: 254],77
12,GFCWNVCVYRNGVRVCHRRCR [SEQ ID NO: 289],83
13,KFCWNVCVYRNGVRVCHRRCN [SEQ ID NO: 100],78
14,GFCWNACVKRNGVRVCYRRCN [SEQ ID NO: 258],89
15,GFCGHVCVYRNGVRRCYRRCN [SEQ ID NO: 155],83
16,GFCYRVCVYRNGVRTCYRRCN [SEQ ID NO: 209],89

# The remaining lines, values ahead:
row,Protein binding (%),Binder
1,85,GFCWNVCVYRNGVRFCHRRCN [SEQ ID NO: 245]
2,91,GFCYNVCVYRNGVRRCYRRCN [SEQ ID NO: 207]
3,83,GFCWNVCVYRNGYRVCHRRCN [SEQ ID NO: 242]
4,72,GFCWNVCVYRNGVRVCHRRCK [SEQ ID NO: 284]
5,66,GFCWNVCVYRNGVRVCHRRCG [SEQ ID NO: 281]
6,84,GFCGRVCVYRNGVRTCYRRCN [SEQ ID NO: 171]
7,88,GFCWNICVYRNGVRVCHRRCN [SEQ ID NO: 262]
8,87,GFCGRVCVYRNGVRRCYRRCN [SEQ ID NO: 170]
9,81,MFCWNVCVYRNGVRVCHRRCN [SEQ ID NO: 101]
10,93,GFCWRVCVYRNGVRKCHRRCN [SEQ ID NO: 315]
11,96,GFCYRVCVYRNGVRVCSRRCN [SEQ ID NO: 211]
12,91,GFCWNVCVYRNYVRVCHRRCN [SEQ ID NO: 229]
13,64,GFCWNVCVYRNGARVCHRRCN [SEQ ID NO: 235]
14,73,GFCWNVCVYRNGVRVCYRRCN [SEQ ID NO: 11]
15,80,GFCWNVCLYRNGVRVCHRRCN [SEQ ID NO: 275]
16,86,GFCWNVCVYRNRVRVCHRRCN [SEQ ID NO: 228]

row,Protein binding (%),Binder
1,84,GFCWNFCVYRNGVRVCHRRCN [SEQ ID NO: 260]
2,85,GFCWNVCVYRHGVRVCHRRCN [SEQ ID NO: 232]
3,65,GFCWNVCVYRNGRRVCHRRCN [SEQ ID NO: 239]
4,74,GFCWNVCFYRNGVRVCHRRCN [SEQ ID NO: 272]
5,96,GFCWYGCVYRNGVRVCYRRCN [SEQ ID NO: 15]
6,78,GFCWNVCVYRQGVRVCHRRCN [SEQ ID NO: 233]
7,99,GFCWNVCVYRNGVRVCHRRCW [SEQ ID NO: 291]
8,85,GFCWNWCVYRNGVRVCHRRCN [SEQ ID NO: 267]
9,43,GFCWNVCVHRNGVRVCHRRCN [SEQ ID NO: 303]
10,86,GFCYKVCVYRNGVRSCYRRCN [SEQ ID NO: 206]
11,77,HFCWNVCVYRNGVRVCHRRCN [SEQ ID NO: 98]
12,76,GFCWNVCVKRNGVRVCHRRCN [SEQ ID NO: 305]
13,66,GFCWNVCVYRGGVRVCHRRCN [SEQ ID NO: 231]
14,68,GFCGHVCVYRNGVRVCYRRCS [SEQ ID NO: 144]
15,99,GFCWHVCHYRNSVRVCYRRCN [SEQ ID NO: 219]
16,99,GFCWHVCARRNGVRVCYRRCN [SEQ ID NO: 218]
